Data reported in patent publication US20200392251A1 (University of California, published 2020).
Substitutions are numbered along the chain they refer to.

What was measured:
[1] = biological target: T1, catalytic domain of human MMP-14 (cdMMP-14) (human, UniProt P50281 114-320); experiment: bio-layer interferometry (ForteBio), biotinylated protease on streptavidin biosensor, Fab in solution [panel 2D9]
T1 construct: range 114-320; Produced active in E. coli periplasm; biotinylated for BLI/ELISA
Procedure: (§1) Binding kinetics of produced antibodies towards associated protease targets were analyzed by using biolayer interferometry (ForteBio). For Fabs, biotinylated proteases were immobilized on streptavidin biosensors, and Fab binding to the sensors in absence of protease was monitored as backgrounds.

[2] = biological target: T1, catalytic domain of human MMP-14 …; experiment: enzyme inhibition assay with FRET peptide substrate (M-2350), Fab titrated on cdMMP-14 [panel 2D9]
Procedure: (§2) For inhibition tests, 1 μM Fabs were 2-fold serially diluted into protease specific assay buffer and incubated with 1-10 nM proteases for 30 min at room temperature. […] Inhibition percentages at given concentrations were calculated by comparing the initial reaction rates in the presence or absence of inhibitor. […] Vₘₐₓ and Kₘ at various Fab concentrations were measured to determine the inhibition type. FRET inhibition assays were also used for selectivity tests of isolated Fabs with the relevant proteases.

[3] = biological target: T1, catalytic domain of human MMP-14 …; experiment: FRET peptide inhibition assay; KI=IC50/(S/Km+1)
Procedure: as §2

[4] = biological target: T1, catalytic domain of human MMP-14 …; experiment: biolayer interferometry; biotinylated protease on streptavidin sensor, Fab in solution
Procedure: as §1

[5] = biological target: T1, catalytic domain of human MMP-14 …; experiment: bio-layer interferometry (ForteBio), biotinylated protease on streptavidin biosensor, Fab in solution [panel 2A6]
Procedure: as §1

[6] = biological target: T1, catalytic domain of human MMP-14 …; experiment: enzyme inhibition assay with FRET peptide substrate (M-2350), Fab titrated on cdMMP-14 [panel 2A6]
Procedure: as §2

[7] = biological target: T2, Aspergillus fumigatus autophagic serine protease 2 (Alp2) (Aspergillus fumigatus, UniProt P87184 136-495); experiment: enzyme inhibition assay with FRET peptide substrate, Fab titrated on Alp2 [panel B]
T2 construct: range 136-495; Produced active in E. coli periplasm; biotinylated for BLI
T2 sequence: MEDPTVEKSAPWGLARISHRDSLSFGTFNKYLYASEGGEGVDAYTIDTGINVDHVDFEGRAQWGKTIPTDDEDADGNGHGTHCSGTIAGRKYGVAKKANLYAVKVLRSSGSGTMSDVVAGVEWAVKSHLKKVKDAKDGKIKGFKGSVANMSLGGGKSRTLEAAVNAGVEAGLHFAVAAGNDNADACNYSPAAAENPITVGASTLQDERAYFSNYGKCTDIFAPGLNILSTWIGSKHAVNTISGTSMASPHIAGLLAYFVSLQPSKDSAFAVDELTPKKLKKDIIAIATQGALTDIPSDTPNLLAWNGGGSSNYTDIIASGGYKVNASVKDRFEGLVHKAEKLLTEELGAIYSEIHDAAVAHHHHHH
Procedure: as §2

[8] = biological target: T2, Aspergillus fumigatus autophagic serine …; experiment: enzyme inhibition assay with FRET peptide substrate (Mca-[..](Dnp)), Fab titrated on Alp2 [panel A4A2]
Procedure: as §2

[9] = biological target: T1, catalytic domain of human MMP-14 …; experiment: bio-layer interferometry (ForteBio), biotinylated protease on streptavidin biosensor, Fab in solution [panel 2B12]
Procedure: as §1

[10] = biological target: T1, catalytic domain of human MMP-14 …; experiment: enzyme inhibition assay with FRET peptide substrate (M-2350), Fab titrated on cdMMP-14 [panel 2B12]
Procedure: as §2

[11] = biological target: T1, catalytic domain of human MMP-14 …; experiment: enzyme inhibition assay with FRET peptide substrate (M-2350), Fab titrated on cdMMP-14 [panel 2B4]
Procedure: as §2

[12] = biological target: T1, catalytic domain of human MMP-14 …; experiment: bio-layer interferometry (ForteBio), biotinylated protease on streptavidin biosensor, Fab in solution [panel 2B4]
Procedure: as §1

[13] = biological target: T1, catalytic domain of human MMP-14 …; experiment: enzyme inhibition assay with FRET peptide substrate (M-2350), Fab titrated on cdMMP-14 [panel 2B10]
Procedure: as §2

[14] = biological target: T1, catalytic domain of human MMP-14 …; experiment: bio-layer interferometry (ForteBio), biotinylated protease on streptavidin biosensor, Fab in solution [panel 2B10]
Procedure: as §1

[15] = biological target: T1, catalytic domain of human MMP-14 …; experiment: enzyme inhibition assay with FRET peptide substrate (M-2350), Fab titrated on cdMMP-14 [panel 1A5]
Procedure: as §2

[16] = biological target: T1, catalytic domain of human MMP-14 …; experiment: bio-layer interferometry (ForteBio), biotinylated protease on streptavidin biosensor, Fab in solution [panel 1A5]
Procedure: as §1

B1: anti-MMP-14 Fab 2D9 (Fab, V domains shown)
VH: EVQLVESGGGLVQPGGSLRLSCAASGFNISSSSMHWVRQAPGKGLEWVASIYPYYGYTYYADSVKGRFTISADTSKNTAYLQMNSLRAEDTAVYYCARGVTRFTNDASVGQVWAGAYGMDYWGQGTLVTVSS
VL: DIQMTQSPSSLSASVGDRVTITCRASQSVSSAVAWYQQKPGKAPKLLIYSASSLYSGVPSRFSGSRSGTDFTLTISSLQPEDFATYYCQQSSYSLITFGQGTKVEIKR
notes: Fab from a synthetic human Fab library, produced in E. coli periplasm; also called Clone 2D9
Question: With B1 as the binder, how does the koff [1] read?
Answer: 0.0039 s⁻¹

Question: And the kon [1]?
Answer: 15000 M⁻¹ s⁻¹

Question: What about the IC50 [2] of the same binder?
Answer: 260 nM

Question: And the Ki [3]?
Answer: 230 nM

Question: And the Kd [4]?
Answer: 260 nM

B2: anti-MMP-14 Fab 2A6 (Fab, V domains shown)
VH: EVQLVESGGGLVQPGGSLRLSCAASGFNFSSSSIHWVRQAPGKGLEWVASISSSYGYTYYADSVKGRFTISADTSKNTAYLQMNSLRAEDTAVYYCARVVRMLPVRCIPRCIKTTLPLYGMDYWGQGTLVTVSS
VL: DIQMTQSPSSLSASVGDRVTITCRASQSVSSAVAWYQQKPGKAPKLLIYSASSLYSGVPSRFSGSRSGTDFTLTISSLQPEDFATYYCQQSSFPFTFGQGTKVEIKR
notes: Fab from a synthetic human Fab library, produced in E. coli periplasm; also called Clone 2A6
Question: With B2 as the binder, how does the koff [5] read?
Answer: 0.003 s⁻¹

Question: What about the kon [5] of the same binder?
Answer: 24000 M⁻¹ s⁻¹

Question: What about the IC50 [6] of the same binder?
Answer: 480 nM

Question: What about the Ki [3] of the same binder?
Answer: 430 nM

Question: And the Kd [4]?
Answer: 130 nM

B3: anti-Alp2 Fab A4A1 (Fab, V domains shown)
VH: EVQLVESGGGLVQPGGSLRLSCAASGFNISSYYIHWVRQAPGKGLEWVASIYSYSSYTYYADSVKGRFTISADTSKNTAYLQMNSLRAGDTAVYYCARFGSWSYAIDYWGQGTLVTVSS
VL: B2 VL with S91A, F93H, P94L, F95I
notes: Fab from a synthetic human Fab library, produced in E. coli periplasm; also called Clone A4A1
Question: For B3, which IC50 [7] is on record?
Answer: 15 nM

B4: anti-Alp2 Fab A4A2 (Fab, V domains shown)
VH: EVQLVESGGGLVQPGGSLRLSCAASGFNLSSSSMHWVRQAPGKGLEWVASIYPSYSYTYYADSVKGRFTISADTSKNTAYLQMNSLRAEDTAVYYCARKTSDQYLLVGGSFFKLRDCCYVMDYWGQGTLVTVSS
VL: B2 VL with S91A, F93H, P94L, F95I
notes: Fab from a synthetic human Fab library, produced in E. coli periplasm; also called Clone A4A2
Question: B4 was tested. Which IC50 [8] did it give?
Answer: 250 nM

B5: anti-MMP-14 Fab 2B12 (Fab, V domains shown)
VH: EVQLVESGGGLVQPGGSLRLSCAASGFNIYYSSMHWVRQAPGKGLEWVAYIYSSSSYTYYADSVKGRFTISADTSKNTAYLQMNSLRAEDTAVYYCARDCCSCVFSQSAGITLACVYVMDYWGQGTLVTVSS
VL: DIQMTQSPSSLSASVGDRVTITCRASQSVSSAVAWYQQKPGKAPKLLIYSASSLYSGVPSRFSGSRSGTDFTLTISSLQPEDFATYYCQQWGPHYAPITFGQGTKVEIKR
notes: Fab from a synthetic human Fab library, produced in E. coli periplasm; also called Clone 2B12
Question: How did the koff [9] turn out when B5 was run?
Answer: 0.0053 s⁻¹

Question: What about the kon [9] of the same binder?
Answer: 70000 M⁻¹ s⁻¹

Question: And the Ki [3]?
Answer: 120 nM

Question: And the IC50 [10]?
Answer: 140 nM

Question: And the Kd [4]?
Answer: 76 nM

B6: anti-MMP-14 Fab 2B4 (Fab, V domains shown)
VH: EVQLVESGGGLVQPGGSLRLSCAASGFNLYSSYIHWVRQAPGKGLEWVASIYSSYSSTYYADSVKGRFTISADTSKNTAYLQMNSLRAEDTAVYYCARSDSAVYSVRRMGSSGLAAYAMDYWGQGTLVTVSS
VL: DIQMTQSPSSLSASVGDRVTITCRASQSVSSAVAWYQQKPGKAPKLLIYSASSLYSGVPSRFSGSRSGTDFTLTISSLQPEDFATYYCQQYSYGYSSLITFGQGTKVEIKR
notes: Fab from a synthetic human Fab library, produced in E. coli periplasm; also called Clone 2B4
Question: Which IC50 [11] does the source give for B6 here?
Answer: 110 nM

Question: And the Ki [3]?
Answer: 98 nM

Question: And the koff [12]?
Answer: 0.00079 s⁻¹

Question: What about the kon [12] of the same binder?
Answer: 12000 M⁻¹ s⁻¹

Question: What about the Kd [4] of the same binder?
Answer: 66 nM

B7: anti-MMP-14 Fab 2B10 (Fab, V domains shown)
VH: EVQLVESGGGLVQPGGSLRLSCAASGFNIYYSYMHWVRQAPGKGLEWVASIYPSYGYTYYADSVKGRFTISADTSKNTAYLQMNSLRAEDTAVYYCARQLFACWRQSILTPPLLSAMMMGYAMDYWGQGTLVTVSS
VL: B6 VL with Y93V, G94A, S96V, S97W
notes: Fab from a synthetic human Fab library, produced in E. coli periplasm; also called Clone 2B10
Question: Which IC50 [13] does the source give for B7 here?
Answer: 240 nM

Question: And the Ki [3]?
Answer: 210 nM

Question: What about the koff [14] of the same binder?
Answer: 0.0018 s⁻¹

Question: And the kon [14]?
Answer: 40000 M⁻¹ s⁻¹

Question: And the Kd [4]?
Answer: 46 nM

B8: anti-MMP-14 Fab 1A5 (Fab, V domains shown)
VH: EVQLVESGGGLVQPGGSLRLSCAASGFNLYYYYMHWVRQAPGKGLEWVAYIYPYSGSTYYADSVKGRFTISADTSKNTAYLQMNSLRAEDTAVYYCARLDFLMRDIYYDLGGGALGWLIKYAMDYWGQGTLVTVSS
VL: DIQMTQSPSSLSASVGDRVTITCRASQSVSSAVAWYQQKPGKAPKLLIYSASSLYSGVPSRFSGSRSGTDFTLTISSLQPEDFATYYCQQYSGPYPITFGQGTKVEIKR
notes: Fab from a synthetic human Fab library, produced in E. coli periplasm; also called Clone 1A5
Question: How did the IC50 [15] turn out when B8 was run?
Answer: 170 nM

Question: And the Ki [3]?
Answer: 150 nM

Question: And the koff [16]?
Answer: 0.0025 s⁻¹

Question: And the kon [16]?
Answer: 44000 M⁻¹ s⁻¹

Question: And the Kd [4]?
Answer: 57 nM
